Experimental data reported in EP0866075B1 (Arpida AG,, dated 1998).
Where two headings read alike, the source gives them in different places. No end group written: not given here.

Key:
[1] = target: T1, enzyme I (phosphoenolpyruvate-protein phosphotransferase, EC 2.7.3.9) of the E. coli phosphotransferase system (E. coli, UniProt P08839 1-575); assay: cell-based or functional assay
[2] = target: T1, enzyme I (phosphoenolpyruvate-protein …); assay: cell-based or functional assay; remark: listed apart in the source

| Binder | inhibition IC50 [1] [µM] | uncoupling P;Ipeptide/h [1] [Pi/peptide/h] | inhibition IC50 [2] [µM] | uncoupling Pi/peptide (x IC50/h) [2] |
| --- | --- | --- | --- | --- |
| KKFDLRK [peptide 3 KKFDLRK] | 820 | 0.05 | – | – |
| MSRHRN [peptide 29 MSRHRN] | – | – | 760 | 144 Pi/peptide (x IC50/h) |
| MRLLKTLCFGLCG [peptide 31 MRLLKTLCFGLCG] | – | – | 3500 | – |
| KMSRHRKPGA [peptide 16 KMSRHRKPGA] | – | – | 100 | 22.2 Pi/peptide (x IC50/h) |
| RHYLLF [peptide 26 RHYLLF] | – | – | 500 | – |
| KKFHIRKR [peptide 9 KKFHIRKR] | 160 | 0.31 | – | – |
| WHKR [peptide 12 WHKR] | 4900 | – | – | – |
| RHWSIF [peptide 24 RHWSIF] | – | – | 400 | – |
| RIHFIPRRGR [peptide 20 RIHFIPRRGR] | – | – | 280 | 39.6 Pi/peptide (x IC50/h) |
| GLRFGKTRVHYLVLG [peptide 14 GLRFGKTRVHYLVLG] | – | – | 25 | 3.2 Pi/peptide (x IC50/h) |
| KKWHRRKK [peptide 7 KKWHRRKK] | 300 | 0.29 | – | – |
| RHRTLF [peptide 25 RHRTLF] | – | – | 410 | – |
| RHITLF [peptide 28 RHITLF] | – | – | 1380 | – |
| Ac-DGARLHYLF [peptide 23 AcDGARLHYLF] | – | – | 7600 | 15.2 Pi/peptide (x IC50/h) |
| KGWHKRKK [peptide 6 KGWHKRKK] | 530 | 0.23 | – | – |
| RHITSL [peptide 27 RHITSL] | – | – | 650 | – |
| KKFHLRK [peptide 1 KKFHLRK] | 150 | 0.49 | – | – |
| Ac-MRLLKTLCFVGLCG (cysteine pairing not given here) [peptide 32 AcMRLLKTLCFVGLCG] | – | – | > 10000 | – |
| KKWHLRKR [peptide 5 KKWHLRKR] | 30 | 0.3 | – | – |
| Ac-WHKR [peptide 13 Ac-WHKR] | 5800 | – | – | – |
| KISRHGRPTG [peptide 19 KISRHGRPTG] | – | – | 1060 | 479 Pi/peptide (x IC50/h) |
| SGRKSTRVHHWLLVL (not fully specified (residue 11)) [peptide 15 SGRKSTRVHHWLLVL] | – | – | 60 | 6.6 Pi/peptide (x IC50/h) |
| KKWHKRKK [peptide 8 KKWHKRKK] | 440 | 0.215 | – | – |
| DGARLHYLF [peptide 22 DGARLHYLF] | – | – | 1200 | 132 Pi/peptide (x IC50/h) |
| KISRHGKRGK [peptide 18 KISRHGKRGK] | – | – | 140 | 1.9 Pi/peptide (x IC50/h) |
| RLHYLF [peptide 21 RLHYLF] | – | – | 375 | 64.2 Pi/peptide (x IC50/h) |
